What was measured:
Conditions in all cases: both partners purified
[1] = molecular target: T1, preformed Nb28_2-APH2 complex (llama, N-terminus acetylated; C-terminus amidated); assay: ITC; nanobody in the syringe titrated into the cell with TET12SN or a tetrahedron variant (2-5 µM), CC peptide dimer (5-10 µM) or a complex preformed by a first titration; MicroCal VP-ITC, 25 °C; 20 mM sodium phosphate pH 7.0, 150 mM NaCl; independent binding sites model (SEDPHAT), errors by Monte-Carlo
T1 construct: peptide APHshSN, as Dm8; Nb28, as Dm3; source: formed in the ITC cell by a first titration of Nb28 into APH2; copies: 2 + 2

[2] = molecular target: T2, APH2, antiparallel homodimeric coiled coil of the synthetic peptide APHshSN (N-terminus acetylated; C-terminus amidated); assay: as above
T2 construct: designed peptide APH (full name APHshSN); also called APH peptide pair; source: synthetic peptide, bought: ProteoGenix
T2 peptide: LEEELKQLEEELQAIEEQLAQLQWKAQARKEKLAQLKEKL

[3] = molecular target: T3, antiparallel homodimeric APH coiled-coil (APH2), isolated peptide dimer (synthetic construct (designed peptide …)); assay: crystal structure; crystals of nanobody-CC dimer complexes, solved by molecular replacement
T3 construct: residues named in the text: E4, L8, I15, Q18, Q21, L22, W24, K25, R29; also called APH CC; APH2 peptide; source: synthetic peptide
T3 chain: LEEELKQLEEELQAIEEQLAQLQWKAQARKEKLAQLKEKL

[4] = molecular target: T3, antiparallel homodimeric APH …; assay: ITC; nanobody titrated into the CC peptide dimer, the origami protein or a preformed nanobody-target complex; conditions in SI Appendix
[5] = molecular target: T2, APH2, antiparallel homodimeric coiled …; assay: ITC; titrations at 18, 25 and 32 °C fitted globally (independent binding sites, temperature-independent heat capacity); parameters reported at 25 °C; 20 mM sodium phosphate pH 7.0, 150 mM NaCl
[6] = molecular target: T4, preformed Nb30_2-APH2 complex (llama, N-terminus acetylated; C-terminus amidated); assay: ITC; nanobody in the syringe titrated into the cell with TET12SN or a tetrahedron variant (2-5 µM), CC peptide dimer (5-10 µM) or a complex preformed by a first titration; MicroCal VP-ITC, 25 °C; 20 mM sodium phosphate pH 7.0, 150 mM NaCl; independent binding sites model (SEDPHAT), errors by Monte-Carlo
T4 construct: peptide APHshSN, as Dm8; Nb30, as Dm5; source: formed in the ITC cell by a first titration of Nb30 into APH2; copies: 2 + 2

B1: nanobody Nb30 (VHH)
VHH: QVQLQESGGGLVQPGGSLRLSCAASGSIFSDNDMGWYRQPPGKQREWVATITYDHVTWYADSVKGRFAISRDNAKNTVYLQMNDLKPEDTAVYYCNAVPGRRGSWGQGTQVTVSS
notes: no cleavage of the His6 tag is described; also called Group 10 (Nb30); source: E. coli WK6, periplasmic extract, purified (Ni2+-NTA, SEC)
[1]
  Kd: 55 ± 4.2 nM
  stoichiometry N: 2 nanobody per complex (cell:syringe)
[2]
  Kd: 710 ± 58 nM
  stoichiometry N: 2 nanobody per APH2 dimer (cell:syringe)

B2: nanobody Nb30 (VHH)
VHH: QVQLQESGGGLVQPGGSLRLSCAASGSIFSDNDMGWYRQPPGKQREWVATITYDHVTWYADSVKGRFAISRDNAKNTVYLQMNDLKPEDTAVYYCNAVPGRRGSWGQGTQVTVSS
notes: selected by phage display from a llama immunised with TET12SN; construct and tags are in SI Appendix, Materials and Methods; source: E. coli, recombinant, produced and isolated according to standard procedures
[3]
  stoichiometry N: 2 nanobodies per APH2 dimer (printed 2:2 nanobody:CC peptide)

B3: nanobody Nb49 (VHH)
VHH: QVQLQESGGGLVQPGGSLRLSCIASGRTFNPYGMGWFRQVPGKERTFVSGITWIGGTTYYVNSVKGRFTISRDRAKNTVYLQMNSLKPEDTAVYYCAADKDNTGYNYWGQGTQVTVSS
notes: no cleavage of the His6 tag is described; also called Group 4 (Nb49); source: E. coli WK6, periplasmic extract, purified (Ni2+-NTA; some nanobodies also SEC)
[2]
  stoichiometry N: 2 nanobody per APH2 dimer (cell:syringe)

B4: nanobody Nb49 (VHH)
VHH: QVQLQESGGGLVQPGGSLRLSCIASGRTFNPYGMGWFRQVPGKERTFVSGITWIGGTTYYVNSVKGRFTISRDRAKNTVYLQMNSLKPEDTAVYYCAADKDNTGYNYWGQGTQVTVSS
notes: as for B2
[3]
  stoichiometry N: 2 nanobodies per APH2 dimer (printed 2:2 nanobody:CC peptide)
[4]
  Kd: 570 nM

B5: nanobody Nb26 (VHH)
VHH: QVQLQESGGGLVQAGDSLRLSCAASGRTFSTYPMGWFRQAPGKEREFVAASSSRAYYADSVKGRFTISRNNAKNTVYLQMNSLKPEDTAVYYCVADSSPYYRRYDAAQDYDYWGQGTQVTVSS
notes: no cleavage of the His6 tag is described; also called Group 1 (Nb26); source: E. coli WK6, periplasmic extract, purified (Ni2+-NTA; some nanobodies also SEC)
[2]
  stoichiometry N: 2 nanobody per APH2 dimer (cell:syringe)

B6: nanobody Nb26 (VHH)
VHH: QVQLQESGGGLVQAGDSLRLSCAASGRTFSTYPMGWFRQAPGKEREFVAASSSRAYYADSVKGRFTISRNNAKNTVYLQMNSLKPEDTAVYYCVADSSPYYRRYDAAQDYDYWGQGTQVTVSS
notes: as for B2
[3]
  stoichiometry N: 2 nanobodies per APH2 dimer (printed 2:2 nanobody:CC peptide)
[4]
  Kd: 39 nM
  dH: -28 kcal ⋅ mol^−1

B7: nanobody Nb28 (VHH)
VHH: QVQLQESGGGLVQPGGSLRLSCAAPGFRLDNYVIGWFRQAPGKEREGVSCISSSAGSTYYADSVKGRFTISRDNAKNTVYLQMNSLKPEDTAVYYCATACYSSYVTYWGQGTQVTVSS
notes: no cleavage of the His6 tag is described; also called Group 8 (Nb28); source: E. coli WK6, periplasmic extract, purified (Ni2+-NTA; some nanobodies also SEC)
[5]
  Kd: 94 ± 7.5 nM
  stoichiometry N: 2 nanobody per APH2 dimer (cell:syringe)
[6]
  Kd: 23 ± 1.7 nM
  stoichiometry N: 2 nanobody per complex (cell:syringe)
[2]
  Kd: 140 ± 10 nM
  stoichiometry N: 2 nanobody per APH2 dimer (cell:syringe)

B8: nanobody Nb28 (VHH)
VHH: QVQLQESGGGLVQPGGSLRLSCAAPGFRLDNYVIGWFRQAPGKEREGVSCISSSAGSTYYADSVKGRFTISRDNAKNTVYLQMNSLKPEDTAVYYCATACYSSYVTYWGQGTQVTVSS
notes: as for B2
[3]
  stoichiometry N: 2 nanobodies per APH2 dimer (printed 2:2 nanobody:CC peptide)

From PMC8092592, “A nanobody toolbox targeting dimeric coiled-coil modules for functionalization of designed protein origami structures” (Proceedings of the National Academy of Sciences of the …, 2021)
